We go through 11 molecules from US20190359704A1 (Chugai, published 2019).

For experiment [1], the target named is T1, human IL-6 receptor (soluble hIL-6R) (human, UniProt P08887 20-357, limits assumed, biotin-labeled in the ELISA experiments (sites not given)).
T1 construct: also called biotin-labeled hIL-6R
T1 sequence: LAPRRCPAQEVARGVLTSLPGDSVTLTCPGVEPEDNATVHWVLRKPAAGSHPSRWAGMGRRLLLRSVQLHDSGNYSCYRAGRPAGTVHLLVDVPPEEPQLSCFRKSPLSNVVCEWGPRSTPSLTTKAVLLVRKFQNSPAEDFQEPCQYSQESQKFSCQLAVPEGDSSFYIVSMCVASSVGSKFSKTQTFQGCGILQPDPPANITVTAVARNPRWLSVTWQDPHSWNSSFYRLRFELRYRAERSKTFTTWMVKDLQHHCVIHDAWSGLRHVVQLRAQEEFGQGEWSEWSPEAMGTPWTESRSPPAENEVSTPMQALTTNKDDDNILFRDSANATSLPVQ
Nature of the experiment: SPR Biacore T200, antibody captured on protein A CM5 chip, IL-6R analyte, 25 C, with 100 µmol/l kynurenine; SPR, antibody captured on the chip, IL-6R as analyte, 100 µmol/l kynurenine. As to the method:
Each parameter was calculated using the Biacore T200 Evaluation Software (GE Healthcare).
In general terms: In SPR one partner is held on a chip, and binding of the other changes the refractive index at the surface.

In experiment [2] the target is T1, human IL-6 receptor (soluble hIL-6R). Nature of the experiment: SPR Biacore T200, IL-6R immobilised on CM5, antibody analyte in a concentration series, 1 mM ATP, 25 C; KD from plot of equilibrium value against antibody concentration; SPR, IL-6R on the chip, antibody concentration series, 1 mM ATP, 25 C. As to the method:
The running buffer was used: 20 mmol/1 ACES, 150 mmol/l NaCl, 0.05% (w/v) Tween20, pH 7.4. Assay was carried out at 25° C. […] For dilution of the antibodies, the running buffer or the running buffer containing any one of ATP, ADP, AMP, cAMP, and adenosine (ADO) were used. The final concentration of each small molecule and the final concentration of each antibody were adjusted to 1 mM and 1 μM, respectively. Meanwhile, under the 1 mM ATP condition, assay was carried out with a series of stepwise antibody concentrations. The dissociation constant KD (mol/L) of each clone for IL-6R was calculated from a plot of equilibrium value against antibody concentration. The parameters were calculated using the Biacore T200 Evaluation Software (GE Healthcare).

The target of experiment [3] is T2, human IL-6 (human, biotin-labeled in the ELISA experiments (sites not given)).
T2 construct: ELISA used biotin-labeled human IL-6; SPR used human IL-6 from Kamakura Techno-Science, Inc; also called biotin-labeled human IL-6
As to the kind of experiment: SPR Biacore T200, A11 captured on protein A/G CM5 chip, human IL-6 analyte, 37 C, running buffer with 100 µmol/l kynurenine; SPR kinetics, A11 captured on the chip, IL-6 analyte, 100 µmol/l kynurenine. As to the method: Sensor chip CM5 (GE Healthcare) was immobilized with an appropriate amount of protein A/G (Invitrogen) by amine coupling. Antibodies of interest were captured by the chip to allow interaction to IL-6 as an antigen. The two types of running buffers used were 10 mmol/1 ACES, 150 mmol/l NaCl, 0.05% (w/v) Tween20, 100 μmol/l kynurenine, pH 7.4, and 10 mmol/1 ACES, 150 mmol/l NaCl, 0.05% (w/v) Tween20, pH 7.4. The interaction with IL-6 as an antigen was assessed at 37° C. The buffer used to dilute IL-6 was the same running buffer as described above.
Then, the running buffer was injected at a flow rate of 5 μl/min for three minutes. After observation of human IL-6 dissociation from the antibody, 10 mmol/l glycine-HCl (pH 1.5) was injected at a flow rate of 30 μl/min for 30 seconds to regenerate the sensor chip. […] Each parameter was calculated using the Biacore T200 Evaluation Software (GE Healthcare).

Experiment [4] addresses T2, human IL-6. Nature of the experiment: SPR (Biacore T200), A11 immobilised on CM5, 1 µmol/L IL-6 as analyte for 60 s, 25 °C, kynurenine concentration varied (axis in µmol/L). As to the method:
The running buffer used was 10 mmol/1 ACES, 150 mmol/l NaCl, 0.05% (w/v) Tween20, pH 7.4. […] All was immobilized onto sensor chip CM5 by amine coupling, and as an analyte IL-6 was diluted to 1 μmol/l with 10 mmol/1 ACES, 150 mmol/l NaCl, 0.05% (w/v) Tween20, pH 7.4 containing kynurenine at various concentrations, and allowed to interact for 60 seconds to observe changes in the amount of binding.

The target of experiment [5] is T1, human IL-6 receptor (soluble hIL-6R). As to the kind of experiment: ELISA, biotin-labeled hIL-6R on streptavidin plate, absorbance 450 nm; seven conditions of Table 18. In general terms: In an ELISA, binding on a coated surface is turned into a signal by an enzyme label.
A further experiment has as its target T3, human serum albumin (human, UniProt P02768 25-609, biotin-labeled (sites not given)).
T3 construct: also called HSA; biotin-labeled HSA
As to the kind of experiment: ELISA, biotin-labeled HSA on streptavidin plate, absorbance 450 nm; nine small-molecule conditions of Table 3.

Experiment [6] deals with T4, membrane-type human IL-6R expressed on cells (human, UniProt P08887 20-468).
T4 construct: These are Ba/F3 cells (BaF/hIL-6R, WO2012/073992) or CHO cells expressing human IL-6 receptor; also called hIL-6R expressed on cell membrane; cell-membrane hIL-6R
T4 sequence: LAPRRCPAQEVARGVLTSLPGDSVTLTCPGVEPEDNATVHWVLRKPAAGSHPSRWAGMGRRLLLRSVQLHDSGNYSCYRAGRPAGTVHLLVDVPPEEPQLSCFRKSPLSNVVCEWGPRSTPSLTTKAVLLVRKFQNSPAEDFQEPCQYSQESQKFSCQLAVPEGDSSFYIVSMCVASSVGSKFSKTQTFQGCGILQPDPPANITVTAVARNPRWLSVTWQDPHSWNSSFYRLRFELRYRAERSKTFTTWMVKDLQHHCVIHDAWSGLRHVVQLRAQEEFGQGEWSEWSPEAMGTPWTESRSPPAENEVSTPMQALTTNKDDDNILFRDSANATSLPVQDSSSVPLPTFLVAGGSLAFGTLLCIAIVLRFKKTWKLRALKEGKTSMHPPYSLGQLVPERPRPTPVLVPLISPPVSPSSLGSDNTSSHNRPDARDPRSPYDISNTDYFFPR
As to the kind of experiment: flow cytometry, BaF/hIL-6R cells, secondary antibody against the constant region, with or without 100 µM kynurenine. As to the method:
An appropriate number of BaF/hIL-6R cells were prepared and blocked with PBS containing 2% FBS on ice for one hour or more. […] In this step, the antibodies were contacted with cell-membrane hIL-6R on ice for 30 minutes. […] Then, in the presence or absence of kynurenine, the complex was contacted with a secondary antibody (Beckman Coulter IM1627) that recognizes the antibody constant region. After 30 minutes of incubation with the antibody on ice, the cells were again washed with Wash Buffer and then re-suspended in PBS/2% FBS.
On the technique in general: Flow cytometry measures light scatter and fluorescence of single cells or particles in a stream.

In general, Kd refers to the constant that tells how readily two partners part at equilibrium. Lower therefore signals a tighter complex.

Where a chain is given by its changes, count along the chain named.

Experimental for human serum albumin: Meanwhile, each small molecule was appropriately prepared at the concentrations shown in Table 3 using the buffers indicated in Table 19. Biotin-labeled HSA was used as the antigen.
First, a StreptaWell 96 microtiter plate (Roche) was coated at room temperature for one hour or more with 100 μl of PBS containing biotin-labeled HSA. After washing with Wash buffer to remove unbound biotin-labeled HSA from the plate, each well was blocked for one hour or more with 250 μl of Blocking Buffer. After Blocking Buffer was removed from each well, the purified IgGs were prepared to 2.5 μg/ml in Sample Buffer containing small molecules at the final concentrations shown in Table 3, and each was aliquoted at 100 μl into the plate. The plate was allowed to stand at room temperature for one hour to allow binding of each IgG to biotin-labeled HSA in each well. After washing with Wash Buffer containing small molecules at the final concentrations shown in Table 3, an HRP-conjugated anti-human IgG antibody (BIOSOURCE) diluted with Sample Buffer containing the same small molecules was added to each well. The plate was incubated for one hour. Following wash with Wash Buffer containing each small molecule, the TMB single solution (ZYMED) was added to each well. The chromogenic reaction in the solution of each well was terminated by adding sulfuric acid.

B1: 6RNMSC1-2_F02 (antibody, human IgG1, kappa)
heavy: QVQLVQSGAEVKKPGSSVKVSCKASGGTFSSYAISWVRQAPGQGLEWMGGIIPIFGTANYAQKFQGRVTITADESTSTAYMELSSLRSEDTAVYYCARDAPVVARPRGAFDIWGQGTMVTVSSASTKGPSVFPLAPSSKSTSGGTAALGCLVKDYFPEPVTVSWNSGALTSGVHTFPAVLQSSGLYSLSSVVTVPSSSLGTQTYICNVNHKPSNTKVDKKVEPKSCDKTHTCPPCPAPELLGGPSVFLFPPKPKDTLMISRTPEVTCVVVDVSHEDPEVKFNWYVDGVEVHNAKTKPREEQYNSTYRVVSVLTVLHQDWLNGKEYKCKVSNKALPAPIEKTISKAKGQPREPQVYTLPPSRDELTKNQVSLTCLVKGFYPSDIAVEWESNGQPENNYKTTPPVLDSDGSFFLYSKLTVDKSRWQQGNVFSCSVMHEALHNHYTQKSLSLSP
light: DIVMTQTPLSSPVTLGQPASISCRSSQSLVHSDGNTYLSWLQQRPGQPPRLLIHEISNRFSGVPDRFSGSGAGTNFTLKISRVEAEDVGVYYCMQATQFPRTFGQGTKVEIKRTVAAPSVFIFPPSDEQLKSGTASVVCLLNNFYPREAKVQWKVDNALQSGNSQESVTEQDSKDSTYSLSSTLTLSKADYEKHKVYACEVTHQGLSSPVTKSFNRGEC
notes: also called clone 6RNMSC1-2_F02
B1 showed a Kd in experiment [1] of 1500 nM.

B2: 6RAD2C1-4_001 (antibody, human IgG1, kappa, V domains shown)
VH: EVQLVESGGDLVKPGGGLRLSCAASGFTFSGHTMNWVRQAPGKGLEWVSSISSRSNYIYYADSVKGRFTISRDNAKNSLYLQMNSLRAEDTAVYYCARYGRLHDRNWVFDYWGQGTLVTVSS
VL: QSALTQPPSASGSPGQTVTISCTGTSTDVGDYNYVSWYQQHPGKAPKLMIYQVSKKPSGVPDRFSGSKSGNTASLTVSGLQAEDEADYFCSSRSYGAGVVFGGGTKLTVLR
notes: also called 6RAD2C1-4_01
Regarding B2, binding in experiment [2] was characterised by a dissociation constant (Kd) of 300 nM.

B3: 6RAD2C1-4_030 (antibody, human IgG1, kappa, V domains shown)
VH: B2 VH with G31S, H32Y, N56G, I58A, Y99F, R101A, H103N, D104T, R105L
VL: B2 VL with S92T, S94T, Y95A, G96N, V100L
notes: also called 6RAD2C1-4_30
In experiment [2], B3 displayed a Kd of 330 nM.

B4: 6RDL3C1-4_085 (antibody, human IgG1, kappa, V domains shown)
VH: B2 VH
VL: B2 VL
notes: also called 6RDL3C1-4_85
For B4, in experiment [2], the Kd worked out at 390 nM.

B5: 6RAD2C1-4_076 (antibody, human IgG1, kappa, V domains shown)
VH: B2 VH with H32Y, N56S, Y59D, R101A, H103G, D104Q
VL: QSALTQPPSASGSPGQTVTISCTGTSTDVGDYNYVSWYQQHPGKAPKLMIYQTSKRPSGVPDRFSGSKSGNTASLTVSGLQAEDEADYFCSSRSIKHPVFGGGTKLTVLR
notes: also called 6RAD2C1-4_76
Turning to B5, binding in experiment [2] was put at a Kd of 250 nM.

B6: 6RAD2C1-4_026 (antibody, human IgG1, kappa, V domains shown)
VH: B2 VH with H32Y, I58A, Y59H, H103G
VL: B2 VL with D31A, Q52K, S92L, S94A, Y95A, G96T, A97T, V100L
notes: also called 6RAD2C1-4_26
For the molecule B6, the Kd in experiment [2] stood at 210 nM.

B7: 6RAD2C1-4_005 (antibody, human IgG1, kappa, V domains shown)
VH: B2 VH with G31T, N56S, Y59H, Y99F, R101K, H103G, D104E
VL: B2 VL with S92V, Y95D, A97H, V99P, V100M
notes: also called 6RAD2C1-4_05
In experiment [2], B7 displayed a Kd of 340 nM.

B8: 6RAD2C1-4_011 (antibody, human IgG1, kappa, V domains shown)
VH: B2 VH with N56S, R101A, H103G, D104Q, R105M
VL: B2 VL with Q52S, K56R, Y95S, G96S, A97M, G98N, V100L
notes: also called 6RAD2C1-4_11
B8: in experiment [2], the Kd turned out to be 230 nM.

B9: I6NMSC1-3_A11 (antibody, human IgG1, lambda, V domains shown)
VH: QVQLQESGGGVVQPGRSLRLSCAASGFTFSSYAMHWVRQAPGKGLEWVAVISYDGSNKYYADSVKGRFTISRDNSKNTLYLQMNSLRAEDTAVYYCARDAVTGDDWYFDLWGRGTLVTVSS
VL: SYELTQPPSVSVAPGKTARITCGGNNIGSKSVHWYQQKPGQAPVLVVYDDSDRPSGIPERFSGSNSGNTATLTISRVEAGDEADYYCQVWDSSSDHPVFGGGTKLTVLG
B9 displayed a dissociation constant Kd with human IL-6 [3] of 1000 nM. The “KD printed beside the curve of IL-6 binding against the kynurenine concentration (per paragraph 715 the KD of kynurenine for forming the A11/IL-6/kynurenine complex, not the antibody-antigen KD)” value in the experiment with human IL-6 [4] came out at 32 nM.

B10: GC413 (antibody, human IgG1, kappa, L234A L235A, N297A, V domains shown)
VH: QVQLVQSGAEVKKPGASVKVSCKASGYTFTDYEMHWIRQPPGQGLEWIGAIDPKTGDTAYSQKFKGRVTLTADKSTSTAYMELSSLTSEDTAVYYCTRFYSYTYWGQGTLVTVSS
VL: DIVMTQSPLSLPVTPGEPASISCRSSQSLVHSNRNTYLHWYQQKPGQAPRLLIYKVSNRFSGVPDRFSGSGSGTDFTLKISRVEAEDVGVYYCSQNTHVPPTFGQGTKLEIKR
notes: also called anti-human glypican 3 antibody GC413; anti-human glypican-3 antibody GC413
For B10, the binding result (in experiment [5]; with human serum albumin) was “no binding (tested: 2.5 µg/ml)” each time.

B11: MRA (antibody, human IgG1, kappa, V domains shown)
VH: QVQLQESGPGLVRPSQTLSLTCTVSGYSITSDHAWSWVRQPPGRGLEWIGYISYSGITTYNPSLKSRVTMLRDTSKNQFSLRLSSVTAADTAVYYCARSLARTTAMDYWGQGSLVTVSS
VL: DIQMTQSPSSLSASVGDRVTITCRASQDISSYLNWYQQKPGKAPKLLIYYTSRLHSGVPSRFSGSGSGTDFTFTISSLQPEDIATYYCQQGNTLPYTFGQGTKVEIKR
notes: also called known anti-human IL-6R antibody MRA; control antibody MRA
In the case of B11, the binding result in experiment [6] was “binds”.
